From PMC4027168

Assays:
Test in all cases: EMSA
Settings in all cases: 50 mM Tris-HCl pH 8.0, 5 mM EDTA, 1 mM DTT, 100 mg/ml BSA (so in the source), 6% glycerol, on ice 20 min, 4% native PAGE in 6.7 mM Tris-HCl pH 8.0, 3.3 mM Na …, scale: fold of wild-type affinity
[1] = test system: RecG[ΔC1] (Escherichia coli K-12 MG1655?)
[2] = test system: RecG[Y690A] (Escherichia coli K-12 MG1655?)
[3] = test system: RecG[A693Q] (Escherichia coli K-12 MG1655?)
[4] = no Mg2+, 5 mM EDTA, RecG 0-100 nM, DNA 0.2 nM

Measured: binding signal

J12 Holliday junction
1: [1]; [4] | [2]; [4] | [3]; [4]

replication fork lacking a lagging strand
1: [1] | [2] | [3]
